According to paper PMC6463007:

Molecular target: E. coli GyrB (DNA gyrase subunit B) (E. coli) (UniProt P0AES6)

Sequence of E. coli GyrA (DNA gyrase subunit A) (P0AES4 whole entry): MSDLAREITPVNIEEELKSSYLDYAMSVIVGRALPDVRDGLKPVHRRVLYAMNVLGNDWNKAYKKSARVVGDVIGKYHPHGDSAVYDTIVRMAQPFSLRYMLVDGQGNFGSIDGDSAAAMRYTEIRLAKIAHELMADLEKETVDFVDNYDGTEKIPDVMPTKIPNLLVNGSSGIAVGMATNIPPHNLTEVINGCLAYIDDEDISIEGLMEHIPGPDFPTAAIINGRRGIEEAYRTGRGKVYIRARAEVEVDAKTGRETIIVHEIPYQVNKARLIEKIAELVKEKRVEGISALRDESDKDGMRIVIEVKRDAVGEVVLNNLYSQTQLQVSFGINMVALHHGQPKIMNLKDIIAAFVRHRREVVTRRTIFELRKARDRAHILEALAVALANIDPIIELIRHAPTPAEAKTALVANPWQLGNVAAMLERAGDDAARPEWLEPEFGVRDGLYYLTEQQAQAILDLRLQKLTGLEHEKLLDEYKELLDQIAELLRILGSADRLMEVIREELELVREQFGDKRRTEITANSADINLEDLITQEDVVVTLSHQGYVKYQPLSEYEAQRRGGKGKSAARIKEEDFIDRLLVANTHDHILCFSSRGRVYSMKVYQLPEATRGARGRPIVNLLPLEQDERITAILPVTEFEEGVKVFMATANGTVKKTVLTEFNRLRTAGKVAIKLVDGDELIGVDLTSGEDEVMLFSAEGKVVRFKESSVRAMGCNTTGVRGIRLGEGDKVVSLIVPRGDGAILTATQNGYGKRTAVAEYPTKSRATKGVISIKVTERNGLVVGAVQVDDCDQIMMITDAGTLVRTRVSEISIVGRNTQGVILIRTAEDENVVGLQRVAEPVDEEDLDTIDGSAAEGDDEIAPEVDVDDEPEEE

E. coli GyrA (DNA gyrase subunit A) (from UniProt P0AES4 1-875) (enzyme)
supercoiling of relaxed pMP1000 plasmid by gyrase reconstituted from the two purified subunits; time course 5-80 s after ATP, 30 °C, chloroquine gel (supercoils/sec): 5
